This note sets out measurements from publication doi:10.1101/2022.12.14.520480 (bioRxiv, 2022).

The assay deals with GST-LC3B (UniProt Q9GZQ8 1-120). Description: pull-down.

B1: MYC-tagged LIMP2 wild type (natural protein)
chain: MGRCCFYTAGTLSLLLLVTSVTLLVARVFQKAVDQSIEKKIVLRNGTEAFDSWEKPPLPVYTQFYFFNVTNPEEILRGETPRVEEVGPYTYRELRNKANIQFGDNGTTISAVSNKAYVFERDQSVGDPKIDLIRTLNIPVLTVIEWSQVHFLREIIEAMLKAYQQKLFVTHTVDELLWGYKDEILSLIHVFRPDISPYFGLFYEKNGTNDGDYVFLTGEDSYLNFTKIVEWNGKTSLDWWITDKCNMINGTDGDSFHPLITKDEVLYVFPSDFCRSVYITFSDYESVQGLPAFRYKVPAEILANTSDNAGFCIPEGNCLGSGVLNVSICKNGAPIIMSFPHFYQADERFVSAIEGMHPNQEDHETFVDINPLTGIILKAAKRFQINIYVKKLDDFVETGDIRTMVFPVMYLNESVHIDKETASRLKSMINTTLIITNIPYIIMALGVFFGLVFTWLACKGQGSMDEGTADERAPLIRT
On to B1, for which the binding result is on record as “binds”.
